*1 amine or outer side, *2 acyl side, *3 side chain or, on linkers, in order; H or OH if unused. Side-chain parts run from the residue outwards. [ ]: non-standard residue; d: D form. The star is where a group is joined. C20 diacid = O=C(O)CCCCCCCCCCCCCCCCCCC(=O)*; C16 diacid = O=C(O)CCCCCCCCCCCCCCC(=O)*; γGlu = O=C(O)[C@H](CCC(=O)[*:2])N[*:1]; AEEA = NCCOCCOCC(=O)O; Aib = CC(C)(N)C(=O)O
T1: CRF1R (corticotropin-releasing factor receptor 1), on the CRF1R-overexpression CHO-K1 cell line clone 2 (UniProt P34998 24-415, limits assumed)
T1 sequence (looked up): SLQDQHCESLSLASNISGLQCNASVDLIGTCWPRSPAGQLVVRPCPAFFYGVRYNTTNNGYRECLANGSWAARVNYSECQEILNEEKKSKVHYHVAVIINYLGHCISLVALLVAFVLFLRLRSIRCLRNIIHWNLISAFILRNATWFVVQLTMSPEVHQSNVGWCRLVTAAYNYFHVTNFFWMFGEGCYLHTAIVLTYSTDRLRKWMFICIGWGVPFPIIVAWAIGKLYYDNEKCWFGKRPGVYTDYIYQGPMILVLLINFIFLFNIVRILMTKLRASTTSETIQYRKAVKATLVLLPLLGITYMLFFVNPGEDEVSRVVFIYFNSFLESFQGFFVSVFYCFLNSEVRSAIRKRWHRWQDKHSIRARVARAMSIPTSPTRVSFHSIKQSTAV


Experiments:
[1] = biological target: Rat CRF2 a (corticotropin-releasing factor receptor 2), on the A7R5 rat aortic smooth muscle cell line (rat, UniProt P47866 20-411); test: cell-based or functional assay
[2] = biological target: T1, CRF1R (corticotropin-releasing factor …); test: cell-based or functional assay

Chain of Rat CRF2 a (corticotropin-releasing factor receptor 2), on the A7R5 rat aortic smooth muscle cell line (P47866 20-411): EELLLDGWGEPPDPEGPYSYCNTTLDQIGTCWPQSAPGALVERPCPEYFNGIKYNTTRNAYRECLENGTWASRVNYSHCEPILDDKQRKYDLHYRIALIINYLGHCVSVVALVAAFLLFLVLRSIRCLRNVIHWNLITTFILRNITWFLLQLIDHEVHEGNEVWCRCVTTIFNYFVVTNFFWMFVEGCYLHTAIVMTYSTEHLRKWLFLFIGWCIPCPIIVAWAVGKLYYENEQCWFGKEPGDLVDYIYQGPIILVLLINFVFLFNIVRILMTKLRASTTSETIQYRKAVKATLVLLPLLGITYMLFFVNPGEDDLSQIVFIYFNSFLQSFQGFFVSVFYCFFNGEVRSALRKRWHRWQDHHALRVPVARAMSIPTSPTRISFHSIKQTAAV

EC50 [nM] 0% HSA (cAMP, A7R5 rat aortic smooth muscle cells) [1] [nM] | EC50 [nM] (cAMP, CRF1R-overexpression CHO-K1 cells) [2] | Emax (% I) (cAMP, 100% = Sauvagine at 100 nM) [2] | Binder
0.4 | > 250 | 13 | Ac-IVLSLD[dV]PIKLK([AEEA-γGlu-C20 diacid])KILLEQEKQKAQREQAETN[Aib]QILAQV-NH2 (SMILES CC[C@H](C)[C@H](NC(C)=O)C(=O)N[C@H](C(=O)N[C@@H](CC(C)C)C(=O)N[C@@H](CO)C(=O)N[C@@H](CC(C)C)C(=O)N[C@@H](CC(=O)O)C(=O)N[C@@H](C(=O)N1CCC[C@H]1C(=O)N[C@H](C(=O)N[C@@H](CCCCN)C(=O)N[C@@H](CC(C)C)C(=O)N[C@@H](CCCCNC(=O)COCCOCCNC(=O)CC[C@H](NC(=O)CCCCCCCCCCCCCCCCCCC(=O)O)C(=O)O)C(=O)N[C@@H](CCCCN)C(=O)N[C@H](C(=O)N[C@@H](CC(C)C)C(=O)N[C@@H](CC(C)C)C(=O)N[C@@H](CCC(=O)O)C(=O)N[C@@H](CCC(N)=O)C(=O)N[C@@H](CCC(=O)O)C(=O)N[C@@H](CCCCN)C(=O)N[C@@H](CCC(N)=O)C(=O)N[C@@H](CCCCN)C(=O)N[C@@H](C)C(=O)N[C@@H](CCC(N)=O)C(=O)N[C@@H](CCCNC(=N)N)C(=O)N[C@@H](CCC(=O)O)C(=O)N[C@@H](CCC(N)=O)C(=O)N[C@@H](C)C(=O)N[C@@H](CCC(=O)O)C(=O)N[C@H](C(=O)N[C@@H](CC(N)=O)C(=O)NC(C)(C)C(=O)N[C@@H](CCC(N)=O)C(=O)N[C@H](C(=O)N[C@@H](CC(C)C)C(=O)N[C@@H](C)C(=O)N[C@@H](CCC(N)=O)C(=O)N[C@H](C(N)=O)C(C)C)[C@@H](C)CC)[C@@H](C)O)[C@@H](C)CC)[C@@H](C)CC)C(C)C)C(C)C) [peptide of SEQ ID NO: 232]
3.23 | – | – | Ac-IVLSLD[dV]PIKLK([γGlu-C16 diacid])KILLEQEKQKEQREQAETN[Aib]QILAQV-NH2 (SMILES CC[C@H](C)[C@H](NC(C)=O)C(=O)N[C@H](C(=O)N[C@@H](CC(C)C)C(=O)N[C@@H](CO)C(=O)N[C@@H](CC(C)C)C(=O)N[C@@H](CC(=O)O)C(=O)N[C@@H](C(=O)N1CCC[C@H]1C(=O)N[C@H](C(=O)N[C@@H](CCCCN)C(=O)N[C@@H](CC(C)C)C(=O)N[C@@H](CCCCNC(=O)CC[C@H](NC(=O)CCCCCCCCCCCCCCC(=O)O)C(=O)O)C(=O)N[C@@H](CCCCN)C(=O)N[C@H](C(=O)N[C@@H](CC(C)C)C(=O)N[C@@H](CC(C)C)C(=O)N[C@@H](CCC(=O)O)C(=O)N[C@@H](CCC(N)=O)C(=O)N[C@@H](CCC(=O)O)C(=O)N[C@@H](CCCCN)C(=O)N[C@@H](CCC(N)=O)C(=O)N[C@@H](CCCCN)C(=O)N[C@@H](CCC(=O)O)C(=O)N[C@@H](CCC(N)=O)C(=O)N[C@@H](CCCNC(=N)N)C(=O)N[C@@H](CCC(=O)O)C(=O)N[C@@H](CCC(N)=O)C(=O)N[C@@H](C)C(=O)N[C@@H](CCC(=O)O)C(=O)N[C@H](C(=O)N[C@@H](CC(N)=O)C(=O)NC(C)(C)C(=O)N[C@@H](CCC(N)=O)C(=O)N[C@H](C(=O)N[C@@H](CC(C)C)C(=O)N[C@@H](C)C(=O)N[C@@H](CCC(N)=O)C(=O)N[C@H](C(N)=O)C(C)C)[C@@H](C)CC)[C@@H](C)O)[C@@H](C)CC)[C@@H](C)CC)C(C)C)C(C)C) [peptide of SEQ ID NO: 168]
0.11 | > 250 | 30 | Ac-IVLSLD[dV]PIKLK([AEEA-γGlu-C20 diacid])KILLEQEKQKKQREQAETN[Aib]QILAQV-NH2 (SMILES CC[C@H](C)[C@H](NC(C)=O)C(=O)N[C@H](C(=O)N[C@@H](CC(C)C)C(=O)N[C@@H](CO)C(=O)N[C@@H](CC(C)C)C(=O)N[C@@H](CC(=O)O)C(=O)N[C@@H](C(=O)N1CCC[C@H]1C(=O)N[C@H](C(=O)N[C@@H](CCCCN)C(=O)N[C@@H](CC(C)C)C(=O)N[C@@H](CCCCNC(=O)COCCOCCNC(=O)CC[C@H](NC(=O)CCCCCCCCCCCCCCCCCCC(=O)O)C(=O)O)C(=O)N[C@@H](CCCCN)C(=O)N[C@H](C(=O)N[C@@H](CC(C)C)C(=O)N[C@@H](CC(C)C)C(=O)N[C@@H](CCC(=O)O)C(=O)N[C@@H](CCC(N)=O)C(=O)N[C@@H](CCC(=O)O)C(=O)N[C@@H](CCCCN)C(=O)N[C@@H](CCC(N)=O)C(=O)N[C@@H](CCCCN)C(=O)N[C@@H](CCCCN)C(=O)N[C@@H](CCC(N)=O)C(=O)N[C@@H](CCCNC(=N)N)C(=O)N[C@@H](CCC(=O)O)C(=O)N[C@@H](CCC(N)=O)C(=O)N[C@@H](C)C(=O)N[C@@H](CCC(=O)O)C(=O)N[C@H](C(=O)N[C@@H](CC(N)=O)C(=O)NC(C)(C)C(=O)N[C@@H](CCC(N)=O)C(=O)N[C@H](C(=O)N[C@@H](CC(C)C)C(=O)N[C@@H](C)C(=O)N[C@@H](CCC(N)=O)C(=O)N[C@H](C(N)=O)C(C)C)[C@@H](C)CC)[C@@H](C)O)[C@@H](C)CC)[C@@H](C)CC)C(C)C)C(C)C) [peptide of SEQ ID NO: 230]
1.32 | > 250 | 10 | Ac-IVLSLD[dV]PIKLK([AEEA-γGlu-C20 diacid])KILLEQEKQKEQREQAETN[Aib]QILAQV-NH2 (SMILES CC[C@H](C)[C@H](NC(C)=O)C(=O)N[C@H](C(=O)N[C@@H](CC(C)C)C(=O)N[C@@H](CO)C(=O)N[C@@H](CC(C)C)C(=O)N[C@@H](CC(=O)O)C(=O)N[C@@H](C(=O)N1CCC[C@H]1C(=O)N[C@H](C(=O)N[C@@H](CCCCN)C(=O)N[C@@H](CC(C)C)C(=O)N[C@@H](CCCCNC(=O)COCCOCCNC(=O)CC[C@H](NC(=O)CCCCCCCCCCCCCCCCCCC(=O)O)C(=O)O)C(=O)N[C@@H](CCCCN)C(=O)N[C@H](C(=O)N[C@@H](CC(C)C)C(=O)N[C@@H](CC(C)C)C(=O)N[C@@H](CCC(=O)O)C(=O)N[C@@H](CCC(N)=O)C(=O)N[C@@H](CCC(=O)O)C(=O)N[C@@H](CCCCN)C(=O)N[C@@H](CCC(N)=O)C(=O)N[C@@H](CCCCN)C(=O)N[C@@H](CCC(=O)O)C(=O)N[C@@H](CCC(N)=O)C(=O)N[C@@H](CCCNC(=N)N)C(=O)N[C@@H](CCC(=O)O)C(=O)N[C@@H](CCC(N)=O)C(=O)N[C@@H](C)C(=O)N[C@@H](CCC(=O)O)C(=O)N[C@H](C(=O)N[C@@H](CC(N)=O)C(=O)NC(C)(C)C(=O)N[C@@H](CCC(N)=O)C(=O)N[C@H](C(=O)N[C@@H](CC(C)C)C(=O)N[C@@H](C)C(=O)N[C@@H](CCC(N)=O)C(=O)N[C@H](C(N)=O)C(C)C)[C@@H](C)CC)[C@@H](C)O)[C@@H](C)CC)[C@@H](C)CC)C(C)C)C(C)C) [peptide of SEQ ID NO: 231]

— patent US20260001928A1 (CORTERIA PHARMACEUTICALS, priority 2022, published 2026)
